The values below come from article PMC3340446.

In assay [1] the target is Trypanosoma brucei AlkB homolog (TbABH-His6) (Trypanosoma brucei brucei (strain 427 genomic DNA)). Put plainly: native gel or EMSA.
The target is the same in assay [2]. Kind of assay: SEC. A general note: Size exclusion chromatography separates by hydrodynamic size, large species first.

A word on the stoichiometry N: it is the number of molecules, sites or subunits per partner or assembly. On to “Trypanosoma brucei AlkB homolog (TbABH-His6) (enzyme)”, for which the stoichiometry N in assay [1] turned out to be 4; in assay [2], 2.
